Data set [1] has as its target PaqCI, Type IIS restriction endonuclease of Paucibacter aquatile (Paucibacter aquatile). The data set can be described thus: cryo-EM structure; DNA-free PaqCI, 0.1-0.4 mg/ml; 3.0 Å global resolution map, no symmetry imposed; crystallographic model docked.
Data set [2] has the same target. The data set can be described thus: crystal structure; DNA-free apo-enzyme; 20 to 25% PEG 3350, 0.2 M magnesium chloride, 0.1 M Bis-Tris pH 5.5; 2.5 Å; two subunits in the asymmetric unit, tetramer by a crystallographic two-fold axis.
For data set [3] the target is unchanged. The data set can be described thus: SEC; DNA-free PaqCI on Superdex 200 10/300 GL; 20 mM HEPES pH 7.5, 150 mM sodium chloride, 5 mM magnesium chloride, 1 mM DTT. In general terms: In gel filtration, larger molecules generally elute earlier.
Data set [4] has the same target. The data set can be described thus: cryo-EM structure; PaqCI with 50 bp DNA duplex (1:1.2 molar ratio) in 10 mM calcium chloride, SEC peak in 30 mM BisTris pH 6.5, 100 mM sodium chloride; 3.15 Å map, no symmetry imposed.
The target in data set [5] is T1, PaqCI Type IIS restriction endonuclease (Paucibacter aquatile, UniProt A0A2N8KYF9 1-510).
T1 sequence: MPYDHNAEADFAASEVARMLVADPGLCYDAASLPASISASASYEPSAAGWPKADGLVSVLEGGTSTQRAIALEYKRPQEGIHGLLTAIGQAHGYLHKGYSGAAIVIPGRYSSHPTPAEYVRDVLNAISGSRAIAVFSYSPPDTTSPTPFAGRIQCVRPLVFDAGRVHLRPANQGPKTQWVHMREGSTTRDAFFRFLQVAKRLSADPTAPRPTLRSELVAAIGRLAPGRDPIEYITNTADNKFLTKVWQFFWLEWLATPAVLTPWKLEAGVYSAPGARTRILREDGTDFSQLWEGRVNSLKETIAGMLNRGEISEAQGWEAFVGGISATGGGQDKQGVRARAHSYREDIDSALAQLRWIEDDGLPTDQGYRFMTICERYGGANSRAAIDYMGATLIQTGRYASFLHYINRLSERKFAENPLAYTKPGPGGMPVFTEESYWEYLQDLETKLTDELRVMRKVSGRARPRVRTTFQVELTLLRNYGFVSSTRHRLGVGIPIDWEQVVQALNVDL
The data set can be described thus: SEC co-elution; 10 mM Ca2+; 1:1.2 protein monomer:DNA; SEC/cryo-EM: 30 mM BisTris pH 6.5, 100 mM NaCl; complex formed with 10 mM CaCl2; temperature not stated. The following applies: protein: recombinant; tags: none (untagged); chain copies: 4; 50 complementary bp; four duplexes per tetramer.

In general, stoichiometry N refers to the number of molecules, sites or subunits per partner or assembly. On to “PaqCI, Type IIS restriction endonuclease of Paucibacter aquatile (enzyme)”, for which the stoichiometry N in data set [1], in data set [2], in data set [3] and in data set [4] was 4 in each case.

B1: 50 bp PaqCI target duplex (dsDNA)
DNA 1: CCAGTCGGGATCAGCTCTCTTTCTTCCCACCTGCGCCACGCGAGGTACTC
DNA 2: GAGTACCTCGCGTGGCGCAGGTGGGAAGAAAGAGAGCTGATCCCGACTGG
For the molecule B1, the binding result in data set [5] is reported as “binds”.

The record behind these values is article PMC10201449, “Structures, activity and mechanism of the Type IIS restriction endonuclease PaqCI”.
